In the test the target is T1, PTB RRM2 (residues 156-285 of PTB) as it stands in the PRI-RRM2 chimeras (UniProt P26599 156-285).
T1 construct: the linker residues had no density; source: E. coli BL21 (DE3), purified as part of the PRI-RRM2 chimeras
As to the kind of experiment: crystal structure; PRI sequence fused as N-terminal extension to PTB 156-285 on one chain; sitting drop, 0.2 M NaI, 0.1 M Bis-Trispropane pH 6.5, 20% PEG 3350; two complexes in the asymmetric unit. Particulars: both partners purified.

T1 sequence (P26599 156-285, change not shown): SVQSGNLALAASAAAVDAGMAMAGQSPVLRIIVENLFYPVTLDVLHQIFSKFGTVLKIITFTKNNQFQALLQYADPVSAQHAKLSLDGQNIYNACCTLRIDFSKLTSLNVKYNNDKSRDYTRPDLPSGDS

B1: Raver1 PRI4 12-residue sequence as it stands in the PRI4-RRM2 chimera (peptide)
peptide: SSEGLLGLGPGP
notes: core GLLGLGP is numbered 1-7; In the crystal it was joined on one chain with m3 (chimera m5); source: E. coli BL21 (DE3), purified as part of the PRI4-RRM2 chimera
As to B1, the binding result was “binds”.

B2: Raver1 PRI3 12-residue sequence as it stands in the PRI3-RRM2 chimera (peptide)
peptide: PGVSLLGAPPKD
notes: core SLLGAPP is numbered 1-7; In the crystal it was joined on one chain with m3 (chimera m1); source: E. coli BL21 (DE3), purified as part of the PRI3-RRM2 chimera
B2: the binding result was “binds”.

The values above are taken from PMC3420021, “Crystallographic Analysis of Polypyrimidine Tract-Binding Protein-Raver1 Interactions Involved in Regulation of Alternative Splicing” (Structure(London, England:1993), 2011).
